{
  "source": "the nanobody polyreactivity screen of Harvey et al. (2022)",
  "data": [
    {"assay": "yeast display, Sf9 membrane polyspecificity reagent, FACS + sequencing; frameworks hold sequencing errors", "procedure,_shortened": "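Genes from sorted yeast were amplified by colony PCR, read by MiSeq 2 × 250 sequencing and filtered on CDR length. These cells carried a synthetic nanobody library in Saccharomyces cerevisiae BJ5465 and were sorted by FACS into low and high (top ~1%) gates on anti-HA and streptavidin fluorescence. Polyreactivity is labelled according to the gate of origin.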", "values": [
      {"sequence": "QVQLVESGGGLVQAGGSLRLSCAASGLTFLYYAMGWYRQAPGKERELVAAITGSGGTTNYADSVKGRFTISRDNAKNTVYLQMNSLKPEDTAVYYCAARGRKYYTSLGYYYWGQGTQVTVSS", "polyreactivity (PSR sort gate)": "high polyreactivity"},
      {"sequence": "QVQLVESGGGLVQAGGSLRLSCAASGLTFNSYDMGWYRQAPGKERELVAAISSGGVLPNYADSVKGRFTISRDNAKNTVYLQMNSLNPEDTAVYYCNVYSWPYDYWGQGTQVTVSS", "polyreactivity (PSR sort gate)": "low polyreactivity"},
      {"sequence": "QVQLVESGGGLVQAGGSLRLSCAASGLTFNVYAMGWYRQAPGKERELVASITKRGGSTYYADSVKGRFTISRDNAKNTVYLEMNSLKPEDTAVYYCAADGLTGSKYRATGYYWGQGTQVTVSS", "polyreactivity (PSR sort gate)": "high polyreactivity"},
      {"sequence": "QVQLVESGGGLVQAGGSLRLSCAASGLTFNYYAMGWYRQAPGKERELVAAISSSTGSTYYADSVKGRFTISRDNAKYTVYLQMNSLKPEDTAVYYCAAVRTKAYVSRTSQSGYWGQGTQVTVSS", "polyreactivity (PSR sort gate)": "high polyreactivity"},
      {"sequence": "QVQLVESGGGLVQAGGSLRLSCAASGLTFNYYAMGWYRQPPGKESELVAAITSSGGRTYYADSVKGRFTISRDNAKNTGYLQMNSLKPEDTAVYYCNTVSYRLGAVWFSYDYWGQGTQVTVSS", "polyreactivity (PSR sort gate)": "high polyreactivity"},
      {"sequence": "QVQLVESGGGLVQAGGSLRLSCAASGLTFPFYAMGWYRQAPGKERELVAAITGSGGITYYADSVKGRFTISRDNAKNTVYLQMNSLKPEETAVYYCAFDYTYYTSFVPLFGFDYWGQGTQVTVSS", "polyreactivity (PSR sort gate)": "low polyreactivity"},
      {"sequence": "QVQLVESGGGLVQAGGSLRLSCAASGLTFPLYAMGWYRQAPGKEREFVAAITVSGVSTSYADSEKGRFTISRDIAKITVYLQMNSLKPEDTAVYYCAADYYIWTYWDVYYWGQGTQVTVSS", "polyreactivity (PSR sort gate)": "high polyreactivity"},
      {"sequence": "QVQLVESGGGLVQAGGSLRLSCAASGLTFPSYAMGWYRQAPGKERELVASISSGGSTTYADSVKGRFTISRDNAKNTVYLQMNSLKPEDTAVYYCAAGRYVLRRGYYYWGQGTQVTVSS", "polyreactivity (PSR sort gate)": "high polyreactivity"},
      {"sequence": "QVQLVESGGGLVQAGGSLRLSCAASGLTFPWYAMGWYRQAPGKERELVAGISWSGGSTYYADSVKGRFTNSRDNAKNTVYLQMNSLKPEDTAVYYCKLVKTTSTLGKRRYDYWGQGTQVTVSS", "polyreactivity (PSR sort gate)": "high polyreactivity"},
      {"sequence": "QVQLVESGGGLVQAGGSLRLSCAASGLTFPYYAMGWYRKAPGKERELVAGISDSGGSTYYADSVKGRFTISRDNAKNTVYLQMNSLKPEDTAVYYCAAQGVDSYYENDYWGQGTQVTVSS", "polyreactivity (PSR sort gate)": "high polyreactivity"},
      {"sequence": "QVQLVESGGGLVQAGGSLRLSCAASGLTFPYYAMGWYRQAPGKEREFVAAISRGGGRTSYADSVKGRFTISRDNAKNTVYLQMNSLKPEDTAVYYCAADDPGWYSDLYYYWGLGTQVTVSS", "polyreactivity (PSR sort gate)": "high polyreactivity"},
      {"sequence": "QVQLVESGGGLVQAGGSLRLSCAASGLTFPYYAMGWYRQAPGKERELVAAISGGGRTYYADSVMGRFTISRDNAKNTVYLQMNSLKPEDTAVYYCAPFHVGRYTGTVTDGYDYWGQGTQVTVSS", "polyreactivity (PSR sort gate)": "high polyreactivity"},
      {"sequence": "QVQLVESGGGLVQAGGSLRLSCAASGLTFQENAMGWYRQAPGKERELVASITPIGGSTYYADSVKGRFTISRDNAKNTVYLQMKSLKPEDTAVYYCAARSPIYATYGHDYWGQATQVTVSS", "polyreactivity (PSR sort gate)": "low polyreactivity"},
      {"sequence": "QVQLVESGGGLVQAGGSLRLSCAASGLTFQENGMGGYRQAPGKERELVASITTIGGSTYYADSVKGRFTISRDNAKNTVYLQMKSLKPEDTAVYYCAALSPIYATYGHDYWGQGTQVTVSS", "polyreactivity (PSR sort gate)": "low polyreactivity"},
      {"sequence": "QVQLVESGGGLVQAGGSLRLSCAASGLTFQSYVMGWYRPAPGKERELVAAISWSGTRTYFADSVKGRFTISRDNAKNTVYLQMYSLKPEDTAVYSCAADFYTWYEERYWSYNYWGQGTQVTVSS", "polyreactivity (PSR sort gate)": "high polyreactivity"},
      {"sequence": "QVQLVESGGGLVQAGGSLRLSCAASGLTFQWYAMGWYRQAPGKERELVAAISSRGGSTYYADSVKGRFTISRDNAKNTVYLQMNSLKPVDTAVYYCAVYTIGYLAWYQKFDYWGQGTQVTVSS", "polyreactivity (PSR sort gate)": "high polyreactivity"},
      {"sequence": "QVQLVESGGGLVQAGGSLRLSCAASGLTFRGNVMGWYRQAPGKERELVAAISRSGNTYYADSVKGRFTISRDNAKNTVYLQMNSLKPEDTAVYYCAAQSVRWYSSFKYYYWGQGTQVTVSS", "polyreactivity (PSR sort gate)": "high polyreactivity"},
      {"sequence": "QVQLVESGGGLVQAGGSLRLSCAASGLTFRKNAMGWYRQAPGKERELVAGISSGGSTYYADSVKGRFTISRDNAKNTVYLQMNSLKPEDTAVYYCGANALRTMYYWGQGTQVNVSS", "polyreactivity (PSR sort gate)": "high polyreactivity"},
      {"sequence": "QVQLVESGGGLVQAGGSLRLSCAASGLTFRLNAMGWYRQAPGKERELVAAITAIGDRTYYADSVKGRFTISRDNAKNTVYLQMKSLKQEDTAVYYCNVTPRRAQVRIGNYWGQGTQVTVSS", "polyreactivity (PSR sort gate)": "high polyreactivity"},
      {"sequence": "QVQLVESGGGLVQAGGSLRLSCAASGLTFRPYTMGWYRQAPAKERELVAAISARGGRTYYADSVKGRFTISRDNAKNTVYLQMNSLKPEDTAVYYCATLETTGVNYWGQGTQVTVSS", "polyreactivity (PSR sort gate)": "high polyreactivity"},
      {"sequence": "QVQLVESGGGLVQAGGSLRLSCAASGLTFRQYAMGWYRQAPGKERELVAAITNGGRTYYADSVKGRFTISRDNAKNTVYLQMNSLKPEDTAVYYCAAYVPTFKDRSRWYGRKYDYWGQGTQVTVSS", "polyreactivity (PSR sort gate)": "low polyreactivity"},
      {"sequence": "QVQLVESGGGLVQAGGSLRLSCAASGLTFRRYTMGWYRQAPGKERECVAAIRTSGGSTSYADSVKGRFTISRDNAKNTVYLQMNSLKPEDTAVYYCAADYGGTSYVRGTVGRKYDYWGQGTQVTVSS", "polyreactivity (PSR sort gate)": "high polyreactivity"},
      {"sequence": "QVQLVESGGGLVQAGGSLRLSCAASGLTFRVNDMGWYRQAPGKERELVATISSGGSTYYADSVKGRFTISRDNAKNTVYLQMNSLKPEDTAVYYCATNSEGQESNSYYVWMGYWGQGTHVTVSS", "polyreactivity (PSR sort gate)": "low polyreactivity"},
      {"sequence": "QVQLVESGGGLVQAGGSLRLSCAASGLTFRWYAMGWYRQAPGKEREWVAAISSGGRTYYADSVKGRFTISRDNAKNTVYLHMNSLKPEDTAVYYCNKRTLDYGFGSYGRDYWGQGTQVTVSS", "polyreactivity (PSR sort gate)": "high polyreactivity"},
      {"sequence": "QVQLVESGGGLVQAGGSLRLSCAASGLTFRYYAMGWDRPAPGKERELVAAITASVGSTYYADSVKGRFTISRDNAKNTVYLQMNSLNPEDTAVYYCNADLSYFFGPYWGLYGLDYWGQGTQVTVSS", "polyreactivity (PSR sort gate)": "low polyreactivity"},
      {"sequence": "QVQLVESGGGLVQAGGSLRLSCAASGLTFRYYAMGWYIQAPGKERELVATITATDGSTYYADSVKGRFTISRDNAKNTVYLQMNSLKPEDTAVYYRAKTYTEYSVTRSGARMDYWGQGTQVTVSS", "polyreactivity (PSR sort gate)": "low polyreactivity"},
      {"sequence": "QVQLVESGGGLVQAGGSLRLSCAASGLTFRYYAMGWYRQAPGKERELVAAITRRGSTYYADSVKGRFTISRDNAKNTVYLQMNSLKPEDTAVYFCATVTGFHSSPLRDLDYWGHGTQVTVSS", "polyreactivity (PSR sort gate)": "high polyreactivity"},
      {"sequence": "QVQLVESGGGLVQAGGSLRLSCAASGLTFSDYAMGWYRQAPGKERELVAGISSGGSTYYADSVKGRFTISRDNAENTVYLQMNSLKPEDTAVYYCAATRYNRWPIKFDYWGQGTQVTVSS", "polyreactivity (PSR sort gate)": "high polyreactivity"},
      {"sequence": "QVQLVESGGGLVQAGGSLRLSCAASGLTFSKYAMGWYRQAPGKERELVAAITRGDRTYYSDSVRGRFTISRDNAKNTVYLQMNRLKPEDTAVYYCAARQYYWGQGTQVTVSS", "polyreactivity (PSR sort gate)": "high polyreactivity"},
      {"sequence": "QVQLVESGGGLVQAGGSLRLSCAASGLTFSPNAMGWYRQAPGKERELVAAITRSGSTTHYADSVKGRFTISRDNAKNTVYLQMNSLKPEDTAVYYCARRYYGPYDYWGQGTQVTVSS", "polyreactivity (PSR sort gate)": "high polyreactivity"},
      {"sequence": "QVQLVESGGGLVQAGGSLRLSCAASGLTFSQNAMGWNRQPPGKERELVGAITRSGSTTHYADSVKGRFTISRDKAKNTVYLQMNSLKPEDTAVYYCAAVAFQTRYYYWGQGTQVTLSS", "polyreactivity (PSR sort gate)": "high polyreactivity"},
      {"sequence": "QVQLVESGGGLVQAGGSLRLSCAASGLTFSRYAMGWYRQAPGKERELVAAISSRSGSTFYADSVKGRFTISRDNAKNTVYLQMNSLKPEDTAVYYCAARRDWLGGYWGQGTQVTVSS", "polyreactivity (PSR sort gate)": "high polyreactivity"},
      {"sequence": "QVQLVESGGGLVQAGGSLRLSCAASGLTFSSYAMGWYRQAPGKERELVAAISLSGGRTYYADSVKGRFTISRDNAKNTVYLQMNSLKPEDTAVYYCAARRPNLQHANDYWGQGTQVTVSS", "polyreactivity (PSR sort gate)": "high polyreactivity"},
      {"sequence": "QVQLVESGGGLVQAGGSLRLSCAASGLTFSSYAMGWYRQAPGKERELVAAITRGGRTQYADSVKGRFTISRDNAKNTVYLQMNSLKPEDTAVYYCARSGNYYYWGQGTQVTVSS", "polyreactivity (PSR sort gate)": "high polyreactivity"},
      {"sequence": "QVQLVESGGGLVQAGGSLRLSCAASGLTFSYNAMGWYIQAPGTERELVAAINWSGGSTYYADSVKGRFTISRDNAKNTVYLPMNSLKPEDTAVYYCAADIYSKGGRGLYYWGQGTQLTVSS", "polyreactivity (PSR sort gate)": "high polyreactivity"},
      {"sequence": "QVQLVESGGGLVQAGGSLRLSCAASGLTFSYYAMGWYRQAPGKERELVAAISITGSTNYADSVKGRFTISRDNAKNTVYLQMNSLKPEDTAVYYCAARRSLSVLPYYYWGQGTQVTVSS", "polyreactivity (PSR sort gate)": "high polyreactivity"},
      {"sequence": "QVQLVESGGGLVQAGGSLRLSCAASGLTFSYYTMGCYRQAPGKERELVARISNRGTNTYYADSVKGRFTISRDNAKNTVYLQMNSLKPEDTAVYYCAKYYYTSIVGYDSWGQGTQVTVSS", "polyreactivity (PSR sort gate)": "low polyreactivity"},
      {"sequence": "QVQLVESGGGLVQAGGSLRLSCAASGLTFTGYAMGWYRQAPGKERELVAAISSRGGSTYYADSVKGRFTISRDTAKNTVYLQMNRLKPEDTAVYYCNAVVVVGRRDYWGQGTQVTVSS", "polyreactivity (PSR sort gate)": "high polyreactivity"},
      {"sequence": "QVQLVESGGGLVQAGGSLRLSCAASGLTFTTYAMGWYRQAPGKERELVAAISRRGSRTYYADSVKGRFTISRDNAKNTVYLQMNSLKPEDTAVYYCNALTGSFKTYSFDYWGQGTQVTVSS", "polyreactivity (PSR sort gate)": "high polyreactivity"},
      {"sequence": "QVQLVESGGGLVQAGGSLRLSCAASGLTFVDNAMGWYRQAPGKERELVAAISFRDGSTYYADSVKGRFTISRDNAKNTVYLQMNSLKPEDTAVYYCAAVGQTHPTSPLSTKYDYWGQGTQVTVSS", "polyreactivity (PSR sort gate)": "low polyreactivity"}
    ]}
  ]
}
